These results are taken from patent US20210292393A1 (published 2021).

Assay [1] addresses T1, SARS-CoV-2 full length spike protein, V483A mutant, expressed on CHO cells (SARS-CoV-2, UniProt P0DTC2 14-1273).
T1 construct: also called SARS-CoV-2 V483A mutant
Briefly: flow cytometry on CHO cells expressing spike V483A.

The target of assay [2] is T2, SARS-CoV-2 full length spike protein, V367F mutant, expressed on CHO cells (SARS-CoV-2, UniProt P0DTC2 14-1273).
T2 construct: also called SARS-CoV-2 V367F mutant
Description: flow cytometry on CHO cells expressing spike V367F.

Assay [3] addresses T1, SARS-CoV-2 full length spike protein, ….
In assay [4] the target is SARS-CoV-2 full length spike protein, D614G mutant, expressed on CHO cells (SARS-CoV-2, UniProt P0DTC2 14-1273). Description: flow cytometry on CHO cells expressing spike D614G.
In assay [5] the target is T3, SARS-CoV-2 full length spike protein, V483A mutant (SARS-CoV-2, UniProt P0DTC2 14-1273).
T3 construct: also called SARS-CoV-2 V483A mutant
Briefly: flow cytometry, CHO cells expressing full-length spike V483A.

Assay [6] has as its target T4, SARS-CoV-2 full length spike protein, V367F mutant (SARS-CoV-2, UniProt P0DTC2 14-1273).
T4 construct: also called SARS-CoV-2 V367F mutant
Description: flow cytometry, CHO cells expressing full-length spike V367F.

For assay [7], the target named is SARS-CoV-2 full length spike protein, V367F mutant (SARS-CoV-2, UniProt P0DTC2 14-1273).
Assay [8] concerns the target SARS-CoV-2 full length spike protein, D614G mutant (SARS-CoV-2, UniProt P0DTC2 14-1273).
The target in assay [9] is T5, SARS-CoV-2 full length spike protein, D614G mutant (SARS-CoV-2, UniProt P0DTC2 14-1273).
T5 construct: also called SARS-CoV-2 D641G mutant
Briefly: flow cytometry, CHO cells expressing full-length spike D614G (printed D641G).

Assay [10] addresses T6, SARS-CoV-2 full length spike protein, V367F mutant (SARS-CoV-2, UniProt P0DTC2 14-1273).
T6 construct: also called SARS-CoV-2 V367F mutant
Briefly: flow cytometry, CHO cells expressing full-length spike V367F. This is another data set of the same source.

The target of assay [11] is T7, SARS-CoV-2 full length spike protein, V483A mutant (SARS-CoV-2, UniProt P0DTC2 14-1273).
Assay [12] concerns the target SARS-CoV-2 full length spike protein, D614G mutant (SARS-CoV-2, UniProt P0DTC2 14-1273). Briefly: flow cytometry, CHO cells expressing full-length spike D614G.
The target of assay [13] is T3, SARS-CoV-2 full length spike protein, …. The source holds these as a separate data set.
Assay [14] addresses T7, SARS-CoV-2 full length spike protein, …. Briefly: flow cytometry, CHO cells expressing full-length spike V483A. The source holds these as a separate data set.

B1: antibody 377 (antibody, V domains shown)
VH: EVQLVESGGGLVKPGGSLRLSCATSGFTFRTYSMNWVRQAPGKGLEWVSSITTSRNYIYYADSVRGRFTISGDNANNSLYLQMNSLRAEDTAVYYCARVRFVRDTRKPYYFDFWGQGTLVTVSS
VL: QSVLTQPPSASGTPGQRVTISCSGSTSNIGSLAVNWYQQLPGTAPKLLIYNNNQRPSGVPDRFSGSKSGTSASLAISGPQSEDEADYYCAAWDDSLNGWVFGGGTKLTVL
Turning to B1, the binding result in assay [1], in assay [2] and in assay [4] was “no binding” each time. The “median fluorescence fold over isotype control” value in assay [3] was 1.09 fold over isotype.

B2: antibody 432 (antibody, V domains shown)
VH: QVQLQESGPGLVKPSQTLSLTCTVSGGSISSGGYYWNWIRQHPGKGLEWIGYIYDSGSTYYNPSLKSRLTLSIDTSQNQFSLRRTSVTAADTAVYYCARGRQYDYDRTGLQYYFDYWGQGTLVTVSS
VL: EIVLTQSPGTLSLSPGERATLSCRASQSFSSSYLAWYQQKPGQAPRLLIYGASSRATGIPDRFSGSGSGTDFTLTISRLEPEDFAVYYCQQYGTSSLTFGGGTKVEIK
For the molecule B2, the binding result in assay [5] and in assay [6] was “no binding” throughout.

B3: antibody 585 (antibody, V domains shown)
VH: QVQLVESGGGVVQPGRSLRLSCAASGFTFATYAMHWVRQAPGKGLEWVALISHDGSNKHYADSVKGRFTISRDNSKKTLYLQMNSLRAEGTAIYYCARESLEAAAPPFDYWGQGTLVTVSS
VL: SYELTQPPSVSVSPGQTATIICSGDKLGEKYASWYQQKPGQSPALVIYQDRKRPSGIPERFSGSNSGNTATLTISGTQAMDEADYYCQAWDSSNSVVFGGGTKLTVP
For B3, the entries for the “median fluorescence intensity, fold over isotype control” value in [7] and in [8] were 33 fold over isotype and 7.49 fold over isotype, respectively.

B4: antibody 296 (antibody, V domains shown)
VH: EVQLVESGGGLVQPGGSLRLSCAGSGFTLSNYWMTWVRQAPGKGLEWVANINQDASRKYYGDSVKGRFSVSRDNAKNSLYLQMNSLTAEDTGFYYCVREELPSTPGSTWGQGTLVTVSS
VL: QSALTQPASVSGSPGQSITISCTGTSSDIGGYNHVSWYQQHPGKAPKLMIYGVSNRPSGVSDRFSGSKSDNTASLTISGLQAEDEADYYCSSPTSRGNKVFGTGTKVTVL
Turning to B4, the binding result in assay [9] and in assay [10] was “no binding” throughout. Moreover, the “median fluorescence intensity, fold over isotype control” value in [11] amounted to 1.27 fold over isotype.

B5: antibody 450 (antibody, V domains shown)
VH: EVQLVESGGGLVQPGGSLRLSCAASEFTFSSYWMSWVRQAPGKGLEWVANIKQDGSEKYYVDSVKGRFTISRDNAKNSLYLQMNSLRAEDTAVYYCARVGEYSGYDLFFDYWGQGTLVTVSS
VL: NFMLTQPHSVSESPGKTVTISYTGSSGSIASNYVQWYQQRPGSAPTTVIYEDNQRPSGVPDRFSGSIDSSSNSASLTISGLKTEDEADYYCQSYDSSNQGVFGGGTKLTVL
Consider B5, for which the binding result in assay [5], in [12] and in assay [6] was “no binding” each time. Moreover, in assay [13], the “median fluorescence fold over isotype control” value was determined as 1.27 fold over isotype.

B6: antibody 290 (antibody, V domains shown)
VH: QVHLVQSGAEVKKPGASVKVSCAASGYTFNNYGVSWVRQAPGQGLEWMGWISASNGNTKYAQNLQGRVTMTTDTSTSTAYMELRSLRSDDTAVYYCARDLVGPTAPNYYYGMDVWGQGTAVTVSS
VL: QSVLTQPPSVSGAPGQRVTISCTGSSSSIGAGYDVHWYQQLPGTAPKLLIYANSNRPSGVPDRLSGSKSGTSASLAITGLQAEDEADYYCQSYDSSLSGYVFGTGTKVTVL
Regarding B6, the binding result in [14] is recorded as “no binding”.
